In a protein production outcome set (Wang et al. 2014):

Assay: label from the status in PepcDB records

Row | Sequence | protein production
1 | MKYIRKSISIFAVLALVFILSFGNVSAGTIYESKTKETVTSGVTLETITRFTDDGWQKINVLRVDLENPNVKVDTLIDSESIKKLTNVKNLAQSAGAVAAVNAGFFNWLKGESGKGYPDGPVIKSGEFLSVDSEYNRYNNSMATIAIDKDNNVYFDFWKTDITLHAPDGSTTRVFQYNKPSPFQYTDITIWTSAWDKYSLGVSQQYPDLVEVVVDNGTVVEIRQGLPAVEIPQNGYVIISRGANAQFLLQHFKVGDPVEISFSTVLDWQKIEMAVTGSAILVKDGQIPEKFSYEISGVHPRTAAGTSKSGKELILVTVDGRQAASKGMTQRELANLMLSLGAYNAINLDGGGSTSMVSRIPGTNDLKVVNTPSDGALRSISTAIGVFSVAPPSELAGMIIETQPNVFVNSSTTLTVKGYDKYFNPVSVDPNSINWSVSGIKGSFAGNVFRAESSGIGTITATVNGIKASTTIRALEAPNKLILSTTKLNLLKGSSYSFTVKGVDNNGYSSYINFADINWTVNGDIATIEKNKITAVKPGTGYIEAAFGDARAYCAVSVASESTYLVDDFEKKNGSFETVPANLPGSYELSSEVKKSGNYSGKLSYDFSYLEGTRAAYLVFPNGGIDLDGNTVEITMMVNNPQQNPNWLRAEVIDSGGQKHLVDFTRDLTWTGWGRVFASLRDIKSPAKLTKIYVVQVNPVPSSGCIYIDDLSLVKATFPEINESTIPKDVVLSDRDNKEAALNKDSIKISVFSGKSNPENMLQKLLNTKFYNKVKADGYMKSIQDISNINTNTHVDIGGTRLITLNTTDKSIRTSASGQWQWFFDKLNSHTGDNIFIFMKNSPDTFVDPLEAKLFKDILIEHKEKTGKNIWVFYGNSSETYYADNGIKYFGVAGLNIGGLTPDNAKNVKYIEITVNGKEVSYQYKSPLK | failed
2 | MWARTAAWVFGLPETLREICYRRDNVKPVDELQKTIGHRFGDMELLLTAMTHSSWANEQAVPVEHNERLEFLGDAVLELCVSEELFRRFPSAREGDLTRMRSRLVSKPSLEGVARELRLDMSLRLGKGEESQGGRERGSLLSDALEAMLGAVFLDAGYIAAKGVVMRILGPHFPEALVPVRTKDYKSQLQELTQKLFRDRPVYTLLGSSGPEHDKQFDVRVVLPDGTVFEATGPSMKRAEQMAAARAVATLDK | failed
3 | MSKFTDRIKNVFTVDYDDYDEDYYDDYEDDDMGLEPEKPEKKERATKSRSERFSARRAATRSDDDIIDDYDEVTAEHEEEPAPHVKTRATARAVKNSRSSRNHKVVPMKSSSEMEVCVIKPSYYENTRDIIDTLLEGKSVVLNLEGMKLDLAQRIVDSVSGGCYAIQGNLQKISGYIYLVTPHSVDITGDFQDLVHDSSDYSSTAYSRRNY | failed
4 | ACDNDTEPGGTAVEKMAGDWWVTVNAFIDGKEVEDPFGAGHLQMSTYNTASNSETEMWLDDLGNFWEYKLKVNVNYAARTFSTTGFVDNVTYESKVKITDGKVLEKAATTPSGMPADSIVYMVQFDDDEDGLTYKVSGFRRTGFPADDF | not failed
5 | MGDGAVKQGFLYLQQQQTFGKKWRRFGASLYGGSDCALARLELQEGPEKPRRCEAARKVIRLSDCLRVAEAGGEASSPRDTSAFFLETKERLYLLAAPAAERGDWVQAICLLAF | not failed
6 | SIKENSYFAGGVKSLGFNQHGQDVSVGVMLPGEYTFGTQAPERMTVVKGALVVKRVGEADWTTYSSGESFDVEGNSSFELQVKDATAYLCEYL | not failed
7 | MAKILEGPAMKLFNKWGIPVPNYVVIMDPKRLAQLGEANKWLRESKLVVKAHEAIGGRFKLGLVKIGLNLDEAIQASREMLGAKVGTAEVRQVIVAEMLDHDAEFYVSIIGNRDGAELLISKYGGVDIEDNWDSVRRIQIPLDEHPTIEQLTALAKEAGFEGEIAERVGKICSRLVLCFDNEDAQSIEINPLVIRKSDMRFAALDAVMNVDWDARFRHADWDFKPVSEIGRPFTEAEQQIMDIDSRIKGSVKFVEVPGGEIALLTAGGGASVFYADAVVARGGTIANYAEYSGDPPDWAVEALTETICRLPNIKHIIVGGAIANFTDVKATFSGIINGLRESKSKGYLEGVKIWVRRGGPNEAQGLAAIRKLQEEGFDIHVYDRSMPMTDIVDLALKS | not failed
8 | MEKIGETMAKLGQNTRVNSDQLIQTILADPEVASFISQHHLSQEQINLSLSKFNQFLVERQKYQLKDPSYIAKGYQPILAMNEGYADVSYLETKELVEAQKQAAISERIQLVSLPKSYRHIHLSDIDVNNASRMEAFSAILDFVEQYPSAEQKGLYLYGDMGIGKSYLLAAMAHELSEKKGVSTTLLHFPSFAIDVKNAISNGSVKEEIDAVKNVPVLILDDIGAEQATSWVRDEVLQVILQYRMLEELPTFFTSNYSFADLERKWATIKGSDETWQAKRVMERVRYLAREFHLEGANRRLEHHHHHH | not failed
9 | MQVELIIKNLKVYNSYFKKFIKSDVLINEGKFLHIGKGYEDRLWSENIIDGEDKYIIPGLIDIHMHIESSMTIPREFSKAAIKHGVTTVVADPHEIANVFGVRGIEEFIKFKGNLDIFYGIPSSVPSTSSSLETTGEKITHNEVKRLLEYDNIICLGEVMNFKDLIEDDDSNINKIINISKEKNIPLEGHCPKIQGVDLSLYIYRGVNGDHTQQSVGSLQEKIQNGMFIEMQHKSMTLENIKFLIENNLYEHFALVTDDVMADKLVKGHLDEILKEAVKLGMSIENAIYASTYTPARRMNLLDRGTIAPGKLADFILLDSIEDFNIYEVYKNGEMVFNRDKGLKEEFFEDKSKLDYRFYNSIELNNITKESLEVKVPNKYKNKVNCRTMKVLKNTTFTEEGEVTLNVYNNILQWEKSSCALIAVFERYGKNNNISFGLVEGEIIKEGAIATTWAHDHHNLMVMGRNISDMTIAANEVINSRGGYVVSKNNEVIAKLELPIGGIISDEPIEIIGEKLGEVRNAMRDLGYNHMNEIMSFSTLSLPVSPALKITDKGLIDVKKGSIVSLFKKGLY | failed
10 | MCPAVVPDDPHALTAPSPWVVRWAAPLPAGARVLDVACGSGRHVRWLAARGLRVTGIDRDADALSGLSEAADTLIADIEDGLWPLPAEAVFDAVVVTNYLYRPLWPRLLACVAPGGRLIYETFAVGNETVGKPSNPAFLLAPGELLEAVRGQLRVIGYEDGFIAAPREAYVQRLCAVRESAGAQARRYAL | failed
11 | MGISVASSNKPNNYDRYFNIYGVVIAAVLAAIAAIEIFEIFELPFEKYFAGIDIASIFSFTTKVVSDSSYVGIFILMTLESMFIPIPSEVILPLSGFLVYQGSFNFAVVLADTIIASMVGSFIDYFLGLYLGRPIIVKILSYFSISEDSLSRAETWIDKMGSFSVFLARFIPGIRSLISLPAGMLKMKMWLFALMTFLGSFIWSFSLIYLGYSAGPYWSVAVKNFSALLDQIIIDVVFLASLAYIFYYIFLKIKRRQHALD | failed
12 | MSAKIKIIPFGGVRENGKNMYAVDVNGGIYILDCGLKYPENELLGIDVVIPDWTYLRENKDRIVAVFLTHGHADAIGALPYFLSEFNVPVFGSEMTIALAKINVADEPKIKKFDDFHVIDEKTEIDFGDVVVSFFSTTHSIPESLGIDLKTDEGQIIYTGDFKFDQTAKPGYQTDYARLGAIGQAGVLALLSDSANAENPAMNASEQSLAESIEETFHYRDSRVIVACVASNILRIQQVFDAAAKTGRKVCLTGKDLEKIVNTAMELGKLTFDADLLVTTDQLDDLAPNEIVILQTGKMGEPIKAIQRMANKQEKDFNIQAGDLVYITTTPSHAMDTTVAQTRDMVYRAGGEVKAISDELNSSGHAYKRDLQLMLNLMKPKFLIPIQGEYRLLNAHADAAMELGIPADHIFILSKGDVLTYAQGDMGLGEGIDVSDTMIDGIGVGDIGNIVLRDRKVLADDGIFIAVVTIDRKKKQIVADPKITSRGFVYVKANKDLMQESSQIIRKAVQNNLDNKEFDWGHLKQDVREHLSHYLFEQTHRRPVILPVIMEVNQHHRRTTKEKPGAGATNEKPVTKSAPKAKAEQTAKPTHKPRRNRKRRPTKKTTTDNA | failed
13 | MISKFIEKRMLNMLDEWYSAMSKRKMNHVCTLKEKIDQHLPKIKKNTKLWMRYQLFQARHQLLFENQNGLDSLFDGLYGLEDKMDDELKYYLYFFSGLYEMVKTAPKHAVHHFKKAEQYLAAIHNTFEAADLYYQTAGAYYLMKSPPLSVQYVKKALHIYLHQFGYIKKVITCKLLLAVNYIDQERYEKAEQLFKEIIKKTQQLHDENLLCHAYYNLGFLKATEKKDQEALLYFRKVLKNQEFEMNSPVSYLHCVYESVRALFKTGNITEAKAVLQKGKELSEKVDIQTIYLKLKTLEALYTSAEDPYEQLLEYVLELEKIEAWVDLEVLLEDITEYYKKKDDFEKAAFFIMRG | failed
14 | MSLSDRVKKIESFTLTLPRETPYLGKPRPGEEPNGRGYLVRKANRTVYPTFDRSVLVRIETENGAVGWGETYGLVAPRATMEIIDDLLADFTIGRDPFDAAAIHDDLYDLMRVRGYTGGFYVDALAAIDIALWDLAGKLAGLPVCKLLGGQRRDRIAAYISGLPEDTRAKRAELAAAWQAKGFSSFKFASPVADDGVAKEMEILRERLGPAVRIACDMHWAHTASEAVALIKAMEPHGLWFAEAPVRTEDIDGLARVAASVSTAIAVGEEWRTVHDMVPRVARRALAIVQPEMGHKGITQFMRIGAYAHVHHIKVIPHATIGAGIFLAASLQASAALANVDCHEFQHSIFEPNRRLLVGDMDCLNGEYVVPTGPGLGVEPSKEAQGLLKKHEGHHHHHH | not failed
15 | MEPITQAFAQQFSREWIDAWNAHDLDAILSHYADGFEMSSPMIVQIAGEPSGRLRGKEQVGAYWREALRMIPDLHFEWIATLAGVDSVAIHYRGAKGRLALEVFHFGPDRRVVKALAHYAG | not failed
16 | MDERPEGGDAQGAREGRDARGDGEPDEVVSGELLPYDDIAGVAAASVGLHALADDLAGERRELAVELRKFFVVLRLSVRRYAALRPYSPSSVSRYLSGDLVAPDHFVATLMDDVGRELGRPLSAQARGRVTGLQRAALRSSNSRAWKVQELEDRLAAAHQDAQVARTQADAVATLLHAERQRVAGVEEERQELARTLEAHQATSGAELDVLRAQQHRVRAERDTLRRRVADLEAALAAAEHRVAEAEQRCADLEHELLTADAAAAAEESAAAEQERARQQAELGSLRDEVARLRVAAERVPETSPARGTQAPRTSVHGAEADATGPVSGDRSAAAPADVPGAASSVTIVYAGFNRAWAAWIGDRLERWGVRAVLMLWDVPADIPLIDLLRDLKLAEGRILIVVSEWYFQLGLRSHDEWNEALREVVAPDPSRFVAVSVTNAPVPSAAAVLAAVDLTDTGADEAERRLLARLVGLPGDSLPAASGGERRGPRFPAATPEVWGGVPRRNTRFTGRESLLSDAYSLLKGAEPGAGVLTLHGMSGVGKTQLAVEYVYRFSSEYDVVWWVGADNRGVFRQTLAELASRLGLSTGAEYGERLRAVRDSLRRGDPYARWLLILDGADDPDQIEDLVPTGPGHVLITSRNLKWGEHNSELLEVPVYDRPESVAFIRRRAPRLAEADADRLAEALEDLPLLLDQTAGWLNDSDLSVGEYIALLDGGIDQDVVKVSADFPIAFRTAWSILLNKVRETVPEAVDLLRLCTFFAPGLIPVRFLREMPHNELPETITGLLNDRLLWNKAIHQLRQYSVVRLESHEAATDGSTSSGESLYLHRMVHQIVRNDMPEDERHEFAAVVRRALASADPGRPTDTRHWGEYAEIVPHLKYADVLDSPDPGVQRLVLNCLGYLHLSGRYAAGVELAERALEAWRELLGDTHPVIWELTAHHTNLLRSTGDYRRTEAVDRAAVEHLREERGELDPDHLRAAAGLAADLRGLGRYGEALELTRRLLTSCLDLLGEQDSRTLDAQHDLGFSLRLLGRYEEALDVDRRTLEARRALLSGRHPGILLSETSCATDLRLLGHYAEAESAQATNARAQRAVMGSDNPQTLRAEHNLALCQYRAGDREKAGKLFSRVLERYERTLGETDPLTLAAAVSQSCFAREYGDIDQAGAASESLIARYEAMLTDGHPFTIGARANHVLLLRQVGARDEARFGAEKALTAMAAAMGESHPWTLGCAINAAAVRQFIGDVESAAELSGSTVARATDALGRTHPLTLSARVAQAADLRGLREHRRAEEIEQEVLADLAATLGSRHVHTVSARSRNRPYWDFEPQPT | failed
17 | SVDLAHIRQVRAEADCLFNNDEVEAAIGRVAEAINRDLGETNPVVFCVMNGGLIFSGKLLPLLDFPLELSYLHATRYRNETSGGELFWKAKPEISFIDRDVLIIDDILDEGHTLSAIIDFCKHAGARAVHTAVLVDKEHERKARPDLKASFTGLYCADRYVFGYGMDYKGYWRNA | failed
